The text below walks through data of patent US20150344544A1 (ACADEMIA SINICA, published 2015).

First the molecules themselves.
B1: Rituximab (antibody, human IgG1, kappa)
heavy: not shown
light: QIVLSQSPAILSASPGEKVTMTCRASSSVSYIHWFQQKPGSSPKPWIYATSNLASGVPVRFSGSGSGTSYSLTISRVEAEDAATYYCQQWTSNPPTFGGGTKLEIKRTVAAPSVFIFPPSDEQLKSGTASVVCLLNNFYPREAKVQWKVDNALQSGNSQESVTEQDSKDSTYSLSSTLTLSKADYEKHKVYACEVTHQGLSSPVTKSFNRGEC
notes: Commercial IgG1 with its native heterogeneous Fc glycans; also called Rituxan; Roche-Rituximab
B2: G6 glycoengineered Rituximab (antibody, human IgG1, kappa)
heavy: not shown
light: B1 light
modifications: homogeneous afucosylated Fc N-glycan (Asn-297): GalGlcNAc2Man3GlcNAc2
notes: IgG1; also called anti-CD20 GAb106
B3: G3 glycoengineered Rituximab (antibody, human IgG1, kappa)
heavy: not shown
light: B1 light
modifications: homogeneous afucosylated Fc N-glycan (Asn-297): GlcNAcMan3GlcNAc2
notes: IgG1; also called anti-CD20 GAb109
B4: G8 glycoengineered Rituximab (antibody, human IgG1, kappa)
heavy: not shown
light: B1 light
modifications: homogeneous afucosylated Fc N-glycan (Asn-297): GlcNAcMan3GlcNAc2
notes: IgG1; also called anti-CD20 GAb110
B5: G1 glycoengineered Rituximab (antibody, human IgG1, kappa)
heavy: not shown
light: B1 light
modifications: homogeneous afucosylated Fc N-glycan (Asn-297): Gal2GlcNAc2Man3GlcNAc2
notes: IgG1; also called anti-CD20 GAb104
B6: G7 glycoengineered Rituximab (antibody, human IgG1, kappa)
heavy: not shown
light: B1 light
modifications: homogeneous afucosylated Fc N-glycan (Asn-297): Man3GlcNAc2
notes: IgG1; also called anti-CD20 GAb111
B7: 2,6-NSCT-Rituximab (antibody, human IgG1, kappa)
heavy: not shown
light: B1 light
modifications: homogeneous afucosylated Fc N-glycan (Asn-297): Sia2(α2-6)Gal2GlcNAc2Man3GlcNAc2
notes: also called anti-CD20 GAb101
B8: G9 glycoengineered Rituximab (antibody, human IgG1, kappa)
heavy: not shown
light: B1 light
modifications: homogeneous afucosylated bisected Fc N-glycan (Asn-297): GlcNAc3Man3GlcNAc2
notes: IgG1; bisected glycan; also called anti-CD20 GAb107
B9: 2,3-NSCT-Rituximab (antibody, human IgG1, kappa)
heavy: not shown
light: B1 light
modifications: homogeneous afucosylated Fc N-glycan (Asn-297), 2,3-sialylated: Sia2(α2-3)Gal2GlcNAc2Man3GlcNAc2
B10: mono-GlcNAc Rituximab (antibody, human IgG1, kappa)
heavy: not shown
light: B1 light
modifications: single GlcNAc (defucosylated) at the Fc N-glycosylation site (Asn-297)
notes: IgG1; made from Rituximab with fucosidase BfFucH and an endoglycosidase; also called N-Rituximab

Where only a bound is given, the exact number is not on record here.

T1 sequence (P08637 17-208 limits assumed): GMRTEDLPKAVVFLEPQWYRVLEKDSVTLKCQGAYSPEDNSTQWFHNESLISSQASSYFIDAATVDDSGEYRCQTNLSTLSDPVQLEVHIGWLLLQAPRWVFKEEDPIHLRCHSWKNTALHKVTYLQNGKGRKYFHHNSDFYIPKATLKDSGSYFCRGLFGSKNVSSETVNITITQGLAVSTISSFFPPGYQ
T4 sequence (P12314 16-288 limits assumed): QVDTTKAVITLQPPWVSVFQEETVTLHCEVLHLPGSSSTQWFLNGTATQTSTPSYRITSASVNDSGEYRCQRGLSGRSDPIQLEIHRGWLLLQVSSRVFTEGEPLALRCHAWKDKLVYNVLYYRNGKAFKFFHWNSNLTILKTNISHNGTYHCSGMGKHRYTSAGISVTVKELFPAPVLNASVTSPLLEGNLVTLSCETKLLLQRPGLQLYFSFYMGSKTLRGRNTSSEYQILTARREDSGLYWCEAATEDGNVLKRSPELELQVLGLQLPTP

The first experiment has as its target T1, FcγRIIIa (UniProt P08637 17-208, limits assumed).
T1 construct: Soluble receptor used in ELISA and SPR; source and construct not described; also called FcRIIIA
In words: SPR.
As to B1, the Kd turned out to be 100 nM.

The molecule B2 returned an equilibrium dissociation constant (Kd) of 7 to 30 nM.

A further experiment addresses T1, FcγRIIIa. In words: SPR, antibody captured with Human Fab capture kit, single cycle kinetics. From the text: Analyzed antibodies were captured by means of the Human Fab capture kit and detected with the single cycle kinetic method.
Regarding B3, the Kd amounted to 83.6 nM.

Regarding B2, the affinity, expressed as Kd, was 27.2 nM. This Kd lies about 3.1-fold lower than the previous one.

Take B4: the Kd is 120 nM.

The molecule B5 showed a Kd of 9.33 nM.

Take B6: binding was characterised by a dissociation constant (Kd) of 62.7 nM.

Take B7: binding was put at a Kd of 8.28 nM.

The molecule B8 came in with an equilibrium dissociation constant (Kd) of 26.2 nM.

In the next experiment the target is T2, C1q (UniProt P02745 23-245; P02746 28-253; P02747 29-245). As to the kind of experiment: cell-based or functional assay.
T2 sequence (P02745 23-245 limits assumed, chain 1 of 3): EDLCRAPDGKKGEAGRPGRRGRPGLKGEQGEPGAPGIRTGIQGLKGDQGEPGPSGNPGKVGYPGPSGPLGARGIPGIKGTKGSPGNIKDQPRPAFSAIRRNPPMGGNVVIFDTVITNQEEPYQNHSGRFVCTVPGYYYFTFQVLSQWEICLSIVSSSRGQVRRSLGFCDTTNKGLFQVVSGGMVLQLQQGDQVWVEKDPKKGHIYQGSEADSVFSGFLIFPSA
T2 sequence (P02746 28-253 limits assumed, chain 2 of 3): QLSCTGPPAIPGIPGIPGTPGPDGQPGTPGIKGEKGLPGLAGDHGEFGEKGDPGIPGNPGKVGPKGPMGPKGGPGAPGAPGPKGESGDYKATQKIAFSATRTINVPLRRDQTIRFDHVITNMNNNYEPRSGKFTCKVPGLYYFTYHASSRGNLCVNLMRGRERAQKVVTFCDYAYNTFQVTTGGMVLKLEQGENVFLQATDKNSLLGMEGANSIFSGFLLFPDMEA
T2 sequence (P02747 29-245 limits assumed, chain 3 of 3): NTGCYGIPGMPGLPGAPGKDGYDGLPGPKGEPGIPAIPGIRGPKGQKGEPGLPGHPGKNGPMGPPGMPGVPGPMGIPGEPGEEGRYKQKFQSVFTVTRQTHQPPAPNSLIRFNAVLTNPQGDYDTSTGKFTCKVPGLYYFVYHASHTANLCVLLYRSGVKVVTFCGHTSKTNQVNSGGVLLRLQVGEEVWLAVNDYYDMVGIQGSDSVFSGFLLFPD
With B1, the “EC50 (ug/ml), CDC assay on Ramos cells, FACS” value (“EC50 (ug/ml), CDC assay” below) was found to be 0.033 µg/mL.

For the molecule B9, the “EC50 (ug/ml), CDC assay” value is 0.086 µg/mL.

In the case of B7, the “EC50 (ug/ml), CDC assay” value is 0.039 µg/mL.

The target in the next experiment is T1, FcγRIIIa. As to the kind of experiment: cell-based or functional assay.
Consider B1, for which the “EC50 (ug/ml), PBMC mediated ADCC on Raji cells” value (“EC50 (ug/ml) … on Raji cells” for short) stood at 0.319 µg/mL; the “EC50 (ug/ml), PBMC mediated ADCC on Ramos cells” value was 4.38 µg/mL; the “EC50 (ug/ml), PBMC mediated ADCC on SKW6.4 cells” value (“EC50 (ug/ml) … on SKW6.4 cells” for short) came out at 2.07 µg/mL.

As for B9, the “EC50 (ug/ml) … on Raji cells” value was 0.086 µg/mL; the “EC50 (ug/ml), PBMC mediated ADCC on Ramos cells” value was 1.45 µg/mL; the “EC50 (ug/ml) … on SKW6.4 cells” value is 1.22 µg/mL.

As to B7, the “EC50 (ug/ml) … on Raji cells” value came out at 0.022 µg/mL; the “EC50 (ug/ml), PBMC mediated ADCC on Ramos cells” value is 0.377 µg/mL; the “EC50 (ug/ml) … on SKW6.4 cells” value worked out at 0.276 µg/mL.

The next experiment deals with T3, FcγRIIb (UniProt P31994 43-217, limits assumed).
T3 construct: Used in ELISA; construct not described
T3 sequence (looked up): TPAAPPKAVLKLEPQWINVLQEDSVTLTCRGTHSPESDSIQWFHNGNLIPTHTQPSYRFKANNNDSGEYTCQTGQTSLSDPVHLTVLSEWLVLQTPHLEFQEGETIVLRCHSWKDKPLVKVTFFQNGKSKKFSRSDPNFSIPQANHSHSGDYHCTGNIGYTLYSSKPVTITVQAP
As to the kind of experiment: ELISA.
Turning to B1, the response was half-maximal at 0.51 nM (EC50).

In turn, B9 came in with an EC50 of 0.53 nM.

The molecule B10 had an EC50 of 0.32 nM.

B7 registered an EC50 of 0.28 nM. This EC50 and that of the molecule before are within 1.5-fold of each other.

A further experiment has as its target T4, FcγRI (UniProt P12314 16-288, limits assumed).
T4 construct: Used in ELISA; construct not described
In words: ELISA.
The molecule B1 returned an EC50 of 0.19 nM. That is a sub-nanomolar value.

B10 yielded an EC50 of 0.85 nM.

Molecule B7 registered a half-maximal effective concentration (EC50) of 0.23 nM.

Another experiment addresses T2, C1q. As to the kind of experiment: ELISA.
For the molecule B1, the EC50 is 6.5 nM.

In the case of B7, a half-maximal effect (EC50) was put at 8 nM.

The target of the next experiment is T5, FcγRIIa (UniProt P12318 34-217, limits assumed).
T5 construct: Used in ELISA; construct not described
T5 sequence (looked up): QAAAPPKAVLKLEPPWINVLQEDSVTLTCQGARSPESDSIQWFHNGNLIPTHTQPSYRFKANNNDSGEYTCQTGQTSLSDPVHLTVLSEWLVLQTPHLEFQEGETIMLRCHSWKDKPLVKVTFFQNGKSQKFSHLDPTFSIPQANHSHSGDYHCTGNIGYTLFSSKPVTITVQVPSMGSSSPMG
In words: ELISA.
In the case of B1, the concentration giving a half-maximal response (EC50) came out at 5.4 nM.

On to B9, for which the EC50 was determined as 16.5 nM.

Molecule B7 yielded an EC50 of 3 nM.

The next experiment concerns the target T1, FcγRIIIa. In words: ELISA.
With B1, the EC50 is 6.2 to 9 nM.

For B10, a half-maximal effect (EC50) was put at 36.3 nM.

With B7, the EC50 was 0.24 to 0.27 nM.

The target of a further experiment is T1, FcγRIIIa. As to the kind of experiment: SPR; commercial Rituxan, not glycoengineered (reference).
For the molecule B1, the Kd was at most 300 nM.
